Experimental data: patent US20110135656A1

Biological target: C5a receptor (mouse) (UniProt P30993)
Assay: cell-based or functional assay

C5a receptor (mouse), sequence (P30993 whole entry): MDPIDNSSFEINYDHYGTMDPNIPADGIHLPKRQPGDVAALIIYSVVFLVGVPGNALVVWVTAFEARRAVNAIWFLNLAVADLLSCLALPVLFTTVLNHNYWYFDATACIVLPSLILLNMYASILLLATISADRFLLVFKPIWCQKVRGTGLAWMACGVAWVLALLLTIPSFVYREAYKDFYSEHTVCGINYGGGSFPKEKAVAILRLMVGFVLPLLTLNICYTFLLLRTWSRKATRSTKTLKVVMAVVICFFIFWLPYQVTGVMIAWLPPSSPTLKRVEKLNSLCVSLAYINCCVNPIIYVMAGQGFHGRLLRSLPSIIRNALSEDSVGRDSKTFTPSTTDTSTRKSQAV

Murine C5a (from UniProt P06684 679-755) (ligand)
6 hr viability of C5-deficient or C3-/- T cells in serum-free medium: 25%
